Source: patent US20240166750A1 (published 2024)

B1: human IgG1 antibody specific for protein 4, S239D/I332E + T256D/T307Q, -Kif (antibody)
chain: ASTKGPSVFPLAPSSKSTSGGTAALGCLVKDYFPEPVTVSWNSGALTSGVHTFPAVLQSSGLYSLSSVVTVPSSSLGTQTYICNVNHKPSNTKVDKKVEPKSCDKTHTCPPCPAPELLGGPDVFLFPPKPKDTLMISRDPEVTCVVVDVSHEDPEVKFNWYVDGVEVHNAKTKPREEQYNSTYRVVSVLQVLHQDWLNGKEYKCKVSNKALPAPEEKTISKAKGQPREPQVYTLPPSRDELTKNQVSLTCLVKGFYPSDIAVEWESNGQPENNYKTTPPVLDSDGSFFLYSKLTVDKSRWQQGNVFSCSVMHEALHNHYTQKSLSLSPGK
B2: human IgG1 antibody specific for protein 4, S239D + T256D/T307Q + R292C/V302C, -Kif (antibody)
chain: ASTKGPSVFPLAPSSKSTSGGTAALGCLVKDYFPEPVTVSWNSGALTSGVHTFPAVLQSSGLYSLSSVVTVPSSSLGTQTYICNVNHKPSNTKVDKKVEPKSCDKTHTCPPCPAPELLGGPDVFLFPPKPKDTLMISRDPEVTCVVVDVSHEDPEVKFNWYVDGVEVHNAKTKPCEEQYNSTYRCVSVLQVLHQDWLNGKEYKCKVSNKALPAPIEKTISKAKGQPREPQVYTLPPSRDELTKNQVSLTCLVKGFYPSDIAVEWESNGQPENNYKTTPPVLDSDGSFFLYSKLTVDKSRWQQGNVFSCSVMHEALHNHYTQKSLSLSPGK
B3: human IgG1 antibody specific for protein 4, T256D/T307Q + R292C/V302C, -Kif (antibody)
chain: ASTKGPSVFPLAPSSKSTSGGTAALGCLVKDYFPEPVTVSWNSGALTSGVHTFPAVLQSSGLYSLSSVVTVPSSSLGTQTYICNVNHKPSNTKVDKKVEPKSCDKTHTCPPCPAPELLGGPSVFLFPPKPKDTLMISRDPEVTCVVVDVSHEDPEVKFNWYVDGVEVHNAKTKPCEEQYNSTYRCVSVLQVLHQDWLNGKEYKCKVSNKALPAPIEKTISKAKGQPREPQVYTLPPSRDELTKNQVSLTCLVKGFYPSDIAVEWESNGQPENNYKTTPPVLDSDGSFFLYSKLTVDKSRWQQGNVFSCSVMHEALHNHYTQKSLSLSPGK

molecular target: Recombinant human FcγRIIIa-V158 (human, UniProt P08637 17-208); assay: SPR; -kif
Sequence (P08637 17-208 F176V): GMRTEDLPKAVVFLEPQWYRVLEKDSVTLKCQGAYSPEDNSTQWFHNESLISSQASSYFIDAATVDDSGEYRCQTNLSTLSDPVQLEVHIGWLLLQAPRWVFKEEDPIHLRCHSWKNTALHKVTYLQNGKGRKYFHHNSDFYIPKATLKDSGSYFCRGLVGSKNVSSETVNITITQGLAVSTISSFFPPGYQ

Point of comparison: B2, Kd 87.5 nM. Against it:
- B1 — 7.1-fold lower, 12.3 nM
- B3 — 4.7-fold higher, 410 nM
